The data set can be described thus: soluble on expression in E. coli; label from the status in PepcDB or PDB records.
For “TSADGLKLVANYLEAPSPSNTTIILAHGYRGKSGKVEMAGLARMYNQKFGYNVLMPDARAHGESEGKNIGFGWPERKDYVQWTNQVLDKNGDDTEIVLHGVSMGSSTVLMTSAEKLPKQVKSIIADCGYTSMDAELAYQLKAMFHLPKFPIIPMASLINKVKEGFFFSEASAINAVAETDLPIFYIHGDSDAFVPTSMVEELYDATKSYKEKWVVKGAEHGQAFTVEPETYEEKVRQFLTKTM”, the “soluble on expression in E. coli” value is “not soluble”.

For the sequence “MSLGKEKKVYIFDSILRDGSQAQGVSFSVADKIKIVKKLDELGIDYIEAGNPSSNPKDREFFEEIRSLKLKHSKLCAFGSTRRAGAKAEEDEGIKKLVDSGVNVFSIFGKAWDFHVTDIIKTSIEENLNMIRDSIKYLVSLNKEVVFDAEHFFDGFKSNKEYAIEVLNTARLAGAKWIVLCDTNGGTMPNEVSDIVKYLVRDLNFDNLGVHFHDDSGMAVANSVVAVHYGVNHVQGTFTGVGERCGNANLSNIIANLSLKMGYNTIKNDKLEYLTVAFRYICEACNMTPNERVAYVGNCAFSHKGGMHIDAVRKNPKSFEHIDPSRVGNSRRILVSEVSGRSTILPALKRINPKIDKDSPETKAVVKRIKDLEYLGYQFEGAEGSFELLMRKELNVFRPSFELVEYKVIAERPYLSDLSATAIVKIMVNGKLETTAADGKGPVNALDKALRKALGVFYKELANVYLTDYKVRVISGTKATSAKIRVLIESTDGVSTWTTVGVSYDIIEASWLALVDSVEYKLIQCNKEENNNEKTDDYDTKNTEGHHHHHH”, the “soluble on expression in E. coli” value is listed as “soluble”.

Consider “MAFRVSVRLARDTFCLSDTVEGSVAVDVEGTSHDVAAAAPSAVRVALRAVEEAGKRHAIEHMALVTTVAGPSTAHEEAAAAALRESVNRFTTEAARRHPLLGVPVSTDSTMLVEGAASEHYTYSAGAGAASNPGGVTSETATSPPQRWEAGGHYVYPFALQLPPWLPPSYYYKPSAVKSHMSMRYTVAAFVVCGVEEADVDVVPREFRLQMTVLVPCTPLPAKAWRGSSCTSDGGAEGADKRGTCASAPLLSPVRFLLPAEIPQLLERLPAAQLVDFTVLSALPKRELQQCVERVSISPPFREKLTYHIYKYSLVLRGLLRNKPYTAVDVCITYDSGAAVLLCGRQQSVVRGGVALGLAAPHGNDSGDAPAALSSAGSGVAPGGLTVMGTVVGGEYSRAPRIHTDNHGMAPSPLGKRARGRQSPAAADPHTGDSANSLWRDGEGAGGSQLSALSACTEPAINGALRLHVRVRTGSVAVSKVRVKLLERVRCTSAPATQPNDVYTLATYTHSEKIHANTSTEFPIELALPKQFRHIAADNEKYPPPAGITTAAVHTTTWLQITFPSLHAVSEAQLAENVVLVGEDVDLTDTVPFLPCACPVRTL”, for which the “soluble on expression in E. coli” value was “not soluble”.

Take “MCMASKVLNKVMGIIGLNDEDFDEYEDEVMEEKAIARENSYDYDEKLNDKNSSNSNNKVVNIHTASSVKVVIVKPKDYDEATQIDDLKNRKIVVVNVTDLEPKTAQRLLDFMGGASYVLNGELLEIDKGVYLLSPSNVDISRDLKNDLASKSIFNWSKLEHHHHHH”: the “soluble on expression in E. coli” value is listed as “not soluble”.

As for “MLRRIKRFLGLSTHAYFPNNEVAPTADGSLISTMSRKSTKSERKAAKKEKKRSQLADTSAPAIFHVPTAPADIVTEGEGSTVGQGSEIDRRTVITDSLPYREPSDKVYMGSPPSTVPQAPESSSSTRSLVGSDSIKSRLESMTIDGTSSVLQHVDSLTNSVYSAEFCQEVDSQNTCDAKSRELPVDCDIPTATEPLPISTKSNPVSNSSLTYMADVKLILPDKRDEKSEEVAGMKQLNAELDGLLKTSAPPFQVSTARLPPMLRELPPPANDESMLSGNDEFDDSKNNSVARYLNESHEVMMRSPENKHLRSCGY”, the “soluble on expression in E. coli” value is “not soluble”.

With “ALENLQVEASCSVCLEYLKEPVIIECGHNFCKACITRWWEDLERDFPCPVC”, the “soluble on expression in E. coli” value is on record as “soluble”.

Consider “MSPLSSGLLGDLDPTSDRAVFRQIADQLREAIDRGRFREGEKLPSEAELVDHYGVSRMTVRNSFSILQGEGLVHAEHGKGVFVRPRPPVRRLASDRFARRHREQGKSAFIVEADAVGSHPKVDSLEVKEEKASQDISTRLGSVRRVLARRRRYLLDGRPVEFATSYLPLDIARGTQIAEPNPGPGGIYARLEELGHRLDHFEEEIRARMPSPAEVKTLHLAAGVPVIHLIRTAFDTEGRAVEVCDTVMAADAYVLSYQLPAT”, for which the “soluble on expression in E. coli” value was “not soluble”.

For the sequence “MGSDKIHHHHHHMLGVCYYPEHWGTEKVEEDFRRMKELGIEYVRIGEFAWSRIESERGKFNWDWLDKTLELAEKMGLKIVLGTPTATPPKWLIDEHPEILPVDKDGRVKNFGSRRHYCFSSPVYREEVKRIVTIIVKRYGKHPAVAGWQTDNEYGCHDTVRCYCPRCKKAFQKWLERKYEGDIKKLNEAWGTVFWSQEYRSFDEIELPNLTPADPNPSHLLDYYRLASDQVVEFNKLQVEIIREYSPGRFITHNFMSGFTDFDHYKLSKDLDFATWDNYPLGHTLVFLRMKGETKNPFDRVGHPDIISFSHDLYRGVGRGRFWVMEQQAGPVNWAPYNLWPAKGAVRLWTWQAFAHGAEVVSYFRWRQAPFAQEQMHSGLLAPDSAPYPGYHEVKQVFEELKNIDINEPVESEVALVFDYETAWVFSIQPHGEGVNYIDLVFRFYSALRRLGLNVDIVPPGSSLDGYKMIVVPSLAIVKEEVLDTFKKYDGLLVLGPRSGSKTETFQIPPEMPPGLLKEIIPVEVRQVESLGDNVETLVWNGKEYPVSIWREDVDPTITEVIARFKDGFGAIFRKENVFYLAFWPNGDFLVDFFEALSKESGIETKRMPEGVRIQRRGEYVFSFNFTSEEVDLEIPTKVQIVLGDQKIPPYGLLIWKENER”, the “soluble on expression in E. coli” value is listed as “not soluble”.

On to “GPGSMLILLFFSPEMLRRTLSRCFSADAIGPVHPDVMWGYMDARYAGPGWVSWIKQLPVETLTMQGGTSMTNMNDRTGVIADPEDPRHPIALIQWGPMNHYDGAFMQLSYGDYGPISQGSRLMQVLYDNYLEPFSMNRVCAQLYFYQKVPNNYHESVEASAEYIGQTASLIGQVLVGMGSVIMEGVTVKGDTNCVYIAEGVQVLENTCIVSDAPTDLLAYQRHEAINPYQQWDGMDGVCRIMQNTIIEPNCFLDSCSIGPFNRIGHNTKIMKGVTTGTMVHILPGSVVTKDTKIGDGELWGGAPAVKIGKVSKFEWKRPYFASLLHRESVVESYRNMSRYGDQVVHFQDKMGKLDTLMLQYEKDVPASVKAKIKEFVQGREPFHHMLTRITQGWSPANRPDDKNYNLCPPLPGVKLFAEHNNDSSDSDLHGTYMDITNIFNDFRW”, for which the “soluble on expression in E. coli” value is listed as “not soluble”.

For “MNAYQKTIGRAVTLSGVGIHGGAPASARLLPADADTGILFQRSDIKDSAPVCAHVSQIGATDLCTSLGAREARIDTVEHLMAAISALGIDNLVVEIEGPEVPILDGTSARFIEAVDSVGVVTQDAKRRFIRILKTVRVEAGNSWGEFRPYDGTRFEVEIDFECPLIGRQKFAHDVDEETFRKELSTARTFGFMKDVERLWAAGLALGASLDNSLVIGDDNSIVNADGLRFKDEFVRHKTLDAVGDLALAGLPFIGCFSSYRGGHRLNSEAVKALLSDETAFEIIEALEHHHHHH”, the “soluble on expression in E. coli” value is recorded as “soluble”.

Consider “MSLKPWLLMMLTTLLVGCGGTPQPKVSFYLLPNNPELSEHIQPKTLPLLVVQPVELAAYLDTQGIVYRQSETQVIQARQNQWAQRLSPQLTQRITNDLRRKQSRYWPAPLNASSIQQEHWKLQVRLQRFNGVYTGNAEVAGNWELLNPKGESMLNQEFSFQVPLKDTGYPALVEALSAGVDQLSTQIETQLVTREGHHHHHH”, for which the “soluble on expression in E. coli” value is given as “soluble”.

As for “MGSDKIHHHHHHMCMDRAICGNFYYGGKFDYLEVIVSDGKIAGIKKDAGNVPKTNYDGAILPAATDIHVHFRTPGETEKEDFGSGSLSAIYGGTTYVMDMPNNRFPITDYNAFGDKLGSIDSTSFADFSLYSMETGKNAMLLDRRSIGLKVYLGGSTNSTGTEVIEEGDIRKINEMNYPVVFHGESERCLKTHQMEEKNLRDHNLARPIDCEIEAAKYVSGLDIKTKIMAHVSSPDVTGNFLREVTPHHLLLNDEMPLGSFGKVNPPLRDSRTQKRLLDDYISGKFDILSSDHAPHTEDDKREFEFAKSGIIGVETRVPLFLALAQKKIVPLDVLYRTAIENPPSIFGIKKGKIEIGYDADFMVIDFTSMKRINDNRLHSKFPVSPFNGMDAIFPSHVIMRGNVVIDRYEDISDPMGVFIPKPQKE”, the “soluble on expression in E. coli” value is listed as “not soluble”.

Consider “MGSIILKAFDESTEINGDSLDLGEIQLTPYKGRLTLELLKKPAHTSQEEPGLEQENLYNYTISIYNKTKQAKIKNFNIKPPYIFLNDTNIETGDVIEVTFTHKKDYTLPATIELTLDRLMNASGQAVAKENGKGMASIQSGNQRCELMVYNSDKKFIESCSMNREGKIISNPLKEGVYTFVFISSNNYLWRLNTLEQFEEIGLKEGIHFVKKEVEIKNGEIKDLGLIVVPELNEKELFFTDPDVASYAVVSENNRIGKDIVLRAKYSFRKPIESQTVKLLFRVPDQTFYVKDTLTIDGELVDSVNVSGSFIEVTTTKTEGVVRFNIRPTEAVVCYSNAYVEFKAEGRTVREPLGVVNEVVPYLTIGAPNVTSLEKVYVTGQTLPNLEVKIYDEGSLVGVTKANSTGAWNFQVSLGKDKSYSVHNLSARIEYNDQVIESETLEVIYKKSVPEIEKVTMIHSNQSLILYKNGEIVPKGVYTYVPSQSYTFIVDFVGDSAEEIENLCIVSNRNGEERKLDAKYDPQSKSWIATGSFGYNHVPGSFTVEYNLKKKRLIKEDGELNLEVLEQISTFADQFLYELKKENVMVGLLDENEIGFMLKEDTGGIAIVTIVIGDQPIEREKYEKMGYLFKEIDGKLGAVLLIKDETENKIFTSKVRLASNKTEDSVKSEDDDESSQKETPLVTKDERISMAATIIGELGNIAGSGKVVEAIDFISGIGTAVNTIAFTPANAVTDMGYVQKKLQESENISSEDKERLRDDLFLASGVYNFTVNANFIASLMDGHTRNGTMHKIIDIVIDKYDQYSLGDKLWEDIFGKNEDDRESGKSTKSGKGSSIKLPLQEQKTLVDPSGYVYETVPDNRITDATVTVYYKDENGEMILWNAEEFGQKNPLLTDENGFYAWDVPEGMWQVKVEKEGYETAYSEILPVPPVQTNVNIPLVSYEPPKVGHIYAYPEYIEIAFSKYVKHATLDSESIQLKQGENKVNIKIVYEDEEGNYSKKIKLIPAEKTSFEGKYTLNISKSITSYAGVAMQKAEIRDIEIVAEPKSIEILDKVEIELRKTVAIEIRVLPEEAAKGKKIIVTSGMEEIVSAEDVLLDERGRGKLKLKGNLPGTVDIDLRLEGSAVEKKIQATVKFPEDNGEIIEPPVVLNGDLNRNGIVNDEDYILLKNYLLRGNKLVIDLNVADVNKDGKVNSTDCLFLKKYILGLITI”, for which the “soluble on expression in E. coli” value is “not soluble”.

For the sequence “MGSDKIHHHHHHMTVVRQTAAEQATATGRRRASFHTLTVAEVRRLTDDAIEVTFGVPAELAGQYDYLPGQYVALRTTMPDENGQPHEVRRSYSICAEPRSFADGSSEIRVAIKKDLGGLFSTWANAELKPGDQLDVMSPMGAFVSKHGRDGKAVEQNVMNSMNHPEDLVGEPGSFVAIAAGSGITPVIAIARTLLAANPETRFDLIYANKAAMDVMFLEELADLKDKYPSRLALHHVLSREQRIAPLLSGRIDAEKLQALLGTAIHADDVDEWFLCGPFELVQLCRDTLAARGVQPEHVRFELFTSGKPDRPEGNIGRPVIADESKDTYKITFKLDGLEGKVESPTHARESLLNAALRVRPDVPFACAGGVCGTCRAKVVTGAVTMDENYALEQDELDKGYVLTCQSHPTTPEVTVDFDV”, the “soluble on expression in E. coli” value is reported as “not soluble”.

For “MTQEAIFKAIREREMKVLNIQVTSSCNYACGMCPFHGDGYSGEYFDERPTIRRDMSLDEIKLILEKASMEGFEWIDLTPNGEFFTHKQWYQILSLIKEFGLKIMITSNGGLLGEEDIKRACEVGVDHIVISVDSLSYESYKKIRKPATKLAFERAIHAPLYFKKYGGDSIYVQIQITEQPEFPHEALGVLDFYKDKGLNQISLKKMFVTGEDGIGHIGVEKLEYTHGKCKAYGSPIVMTDGTVLPCCGAFYFYPKLGEKIPNIFNHTIFESARILDDLYERDSLFGSYCRNCSLYDSSRKAAPVKFIFGDYYAEQTLFETRYFILPKYLRFLPSLAILWLYKKGYARKIKQWLVAAQ”, the “soluble on expression in E. coli” value is “not soluble”.

(Values after the DeepSol protein solubility set.)
